According to patent US20140093526A1 (RESEARCH FOUNDATION FOR MICROBIAL DISEASES OF OSAKA …, published 2014):

B1: HHV-6B glycoprotein Q2 (gQ2) (other)
chain: LPFFSTLPKITSCCDHYVVLNSLSSVSSSTPTCLDGEILFQNAGQKFCRPFTDNRTIVYTMQDQVQRPWSVTWMDFNLVISDYGRAVIENLTESAMSAHKNGPRYLQMETFISDLFRYECHRDNRYVLEKKLQMFYPTTHMNELLFYPSDPTLPSPYGNGHY
notes: Co-expressed with gQ1 from plasmid in cells (293T); also called HHV-6B gQ2; BgQ2
B2: monoclonal antibody KH-1 (anti-HHV-6B gQ1 neutralizing antibody) (antibody, V domains shown)
VH: EVQLQQSGPELEKPGASVKISCKASGYSFTGYNMNWVKQSNGKRLEWIGNIDPYYGGASYNQKFKGKATLTVDKSSTTAYMQLQSLTSEDSAVYYCARGGYGRYFDVWGAGTAVTVSS
VL: QIVLTQSPAIMSASPGEKVTMTCSASSSISYMHWYQQKPGTSPKRWIYDTSKLASGVPARFSGSGSGTSYSLTISNMESEDAATYYCHQRSRYHTFGGGTRLEIKR
notes: Mouse (BALB/c) hybridoma antibody; also called MAb KH-1; anti-gQ1 monoclonal antibody KH-1

Columns and labels:
[1] = biological target: T1, HHV-6B glycoprotein Q1 (gQ1), full length, wild type (human herpesvirus 6B (HHV-6B), UniProt Q9QJ11 25-488); assay: co-expression in cells
T1 construct: Viral envelope glycoprotein; Tested in lysates of HHV-6B (HST strain)-infected cells (immunoprecipitation) and expressed from plasmid in 293T cells (IFA), alone or with gQ2; also called HHV-6B gQ1; BgQ1

[2] = biological target: T2, HHV-6B gQ1 point mutant E488Q G489V (human herpesvirus 6B (HHV-6B), UniProt Q9QJ11 25-487); assay: IFA with KH-1 on 293T cells expressing the point mutant
T2 construct: Expressed in 293T cells

[3] = biological target: T3, HHV-6B gQ1 point mutant C487W E488Q (human herpesvirus 6B (HHV-6B), UniProt Q9QJ11 25-486); assay: as above
T3 construct: Expressed in 293T cells; W is used here

[4] = biological target: T4, HHV-6B gQ1 carboxy-terminal deletion mutant, position 1 to position 483 (human herpesvirus 6B (HHV-6B), UniProt Q9QJ11 25-483); assay: IFA on 293T cells co-transfected with the gQ1 mutant and gQ2
T4 construct: Expressed in 293T cells together with gQ2; also called gQ1 1-483
T4 chain: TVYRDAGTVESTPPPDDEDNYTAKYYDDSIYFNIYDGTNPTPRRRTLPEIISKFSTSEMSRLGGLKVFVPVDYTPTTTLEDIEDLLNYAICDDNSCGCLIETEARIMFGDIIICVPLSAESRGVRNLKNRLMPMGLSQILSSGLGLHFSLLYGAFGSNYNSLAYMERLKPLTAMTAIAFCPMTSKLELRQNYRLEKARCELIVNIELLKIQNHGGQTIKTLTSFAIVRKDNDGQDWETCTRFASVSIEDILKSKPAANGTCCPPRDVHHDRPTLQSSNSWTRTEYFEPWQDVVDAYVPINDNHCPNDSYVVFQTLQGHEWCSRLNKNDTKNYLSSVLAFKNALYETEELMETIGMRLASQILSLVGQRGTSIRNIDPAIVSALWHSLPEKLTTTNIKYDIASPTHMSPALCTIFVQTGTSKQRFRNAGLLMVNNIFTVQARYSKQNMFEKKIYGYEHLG

[5] = biological target: T5, HHV-6B gQ1 carboxy-terminal deletion mutant, position 1 to position 466 (human herpesvirus 6B (HHV-6B), UniProt Q9QJ11 25-466); assay: as above
T5 construct: Expressed in 293T cells together with gQ2; also called gQ1 1-466
T5 chain: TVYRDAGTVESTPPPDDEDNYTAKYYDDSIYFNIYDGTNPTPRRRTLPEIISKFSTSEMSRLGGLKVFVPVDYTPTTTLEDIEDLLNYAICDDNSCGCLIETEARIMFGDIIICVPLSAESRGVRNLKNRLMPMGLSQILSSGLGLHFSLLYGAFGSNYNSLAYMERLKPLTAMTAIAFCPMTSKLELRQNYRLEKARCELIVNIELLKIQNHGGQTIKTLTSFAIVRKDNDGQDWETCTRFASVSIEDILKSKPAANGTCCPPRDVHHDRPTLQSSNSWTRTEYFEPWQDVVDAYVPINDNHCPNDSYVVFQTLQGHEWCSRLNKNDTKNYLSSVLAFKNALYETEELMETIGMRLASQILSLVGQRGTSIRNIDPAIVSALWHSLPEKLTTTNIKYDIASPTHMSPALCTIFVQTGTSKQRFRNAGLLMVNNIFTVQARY

[6] = biological target: T6, HHV-6B gQ1 carboxy-terminal deletion mutant, position 1 to position 451 (human herpesvirus 6B (HHV-6B), UniProt Q9QJ11 25-451); assay: as above
T6 construct: Expressed in 293T cells together with gQ2; also called gQ1 1-451
T6 chain: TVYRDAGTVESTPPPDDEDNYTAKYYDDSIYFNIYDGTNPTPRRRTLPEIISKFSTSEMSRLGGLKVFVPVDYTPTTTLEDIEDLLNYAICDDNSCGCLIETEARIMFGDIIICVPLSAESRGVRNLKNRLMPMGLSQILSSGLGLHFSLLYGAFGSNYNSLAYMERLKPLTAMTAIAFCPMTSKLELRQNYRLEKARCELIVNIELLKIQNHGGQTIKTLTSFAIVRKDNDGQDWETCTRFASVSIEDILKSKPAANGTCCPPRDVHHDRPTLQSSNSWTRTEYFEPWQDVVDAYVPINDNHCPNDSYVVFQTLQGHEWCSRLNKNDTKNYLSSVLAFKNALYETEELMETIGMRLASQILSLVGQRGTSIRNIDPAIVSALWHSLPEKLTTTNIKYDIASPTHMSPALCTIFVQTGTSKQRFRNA

Binder | binding result [1] | binding result [2] | binding result [3] | binding result [4] | binding result [5] | binding result [6]
B1 | binds | – | – | – | – | –
B2 | – | no binding | no binding | no binding | no binding | no binding
